Results as given in paper PMC10359460, “Structural basis of the T4 bacteriophage primosome assembly and primer synthesis” (Nature Communications, 2023).
Numbering of substitutions follows the chain as printed. Numbers in names are those of the source.

B1: T4 bacteriophage gp41 helicase (enzyme, UniProt P04530 1-475, looked up)
chain: MVEIILSHLIFDQAYFSKVWPYMDSEYFESGPAKNTFKLIKSHVNEYHSVPSINALNVALENSSFTETEYSGVKTLISKLADSPEDHSWLVKETEKYVQQRAMFNATSKIIEIQTNAELPPEKRNKKMPDVGAIPDIMRQALSISFDSYVGHDWMDDYEARWLSYMNKARKVPFKLRILNKITKGGAETGTLNVLMAGVNVGKSLGLCSLAADYLQLGHNVLYISMEMAEEVCAKRIDANMLDVSLDDIDDGHISYAEYKGKMEKWREKSTLGRLIVKQYPTGGADANTFRSLLNELKLKKNFVPTIIIVDYLGICKSCRIRVYSENSYTTVKAIAEELRALAVETETVLWTAAQVGKQAWDSSDVNMSDIAESAGLPATADFMLAVIETEELAAAEQQLIKQIKSRYGDKNKWNKFLMGVQKGNQKWVEIEQDSTPTEVNEVAGSQQIQAEQNRYQRNESTRAQLDALANELKF
notes: gp41 helicase of T4 bacteriophage, wild type; NTD (globular subdomain and helical hairpin), linking helix and RecA-like CTD; Hexamer assembled with ATPγS; also called WT gp41 helicase; T4 helicase
B2: T4 bacteriophage gp41 helicase E227Q (enzyme, UniProt P04530 1-475, looked up)
chain: B1 chain with E227Q
notes: gp41 helicase of T4 bacteriophage with E227Q in the walker-B motif (no ATP hydrolysis); PDB 8DTP is the wild-type parent; also called gp41(E227Q)
B3: ssDNA template/pentaribonucleotide primer (DNA:RNA)
DNA: GAATGAGGAGTAGTAGTGAATGTAGTGAGGTAATATCGGCTGGTCTGGTCTGTGCCAAGTTGCTGCAAAA
?: GCCGA
modifications: RNA primer 5'-triphosphate
B4: T4 bacteriophage gp61 primase (enzyme, UniProt P04520 1-342, looked up)
chain: MSSIPWIDNEFAYRALAHLPKFTQVNNSSTFKLRFRCPVCGDSKTDQNKARGWYYGDNNEGNIHCYNCNYHAPIGIYLKEFEPDLYREYIFEIRKEKGKSRPIEKPKELPKQPEKKIIKSLPSCVRLDKLAEDHPIIKYVKARCIPKDKWKYLWFTTEWPKLVNSIAPGTYKKEISEPRLVIPIYNANGKAESFQGRALKKDAPQKYITIEAYPEATKIYGVERVKDGDVYVLEGPIDSLFIENGIAITGGQLDLEVVPFKDRRVWVLDNEPRHPDTIKRMTKLVDAGERVMFWDKSPWKSKDVNDMIRKEGATPEQIMEYMKNNIAQGLMAKMRLSKYAKI
notes: gp61 primase of T4 bacteriophage, wild type; N-terminal ZBD and C-terminal RPD joined by a linker loop (Lys97 to Lys115); the models hold a resolved full-length primase; also called WT gp61 primase; T4 primase

Legend:
gp41 helicase [1] = target: T1, gp41 helicase (Tequatrovirus T4, UniProt P04530); test: cryo-EM structure; assay type: binding; details: five of six nucleotide sites at CTD-CTD interfaces occupied; 5 mM ATPγS, 10 mM MgCl2, pH 7.8; open spiral without ssDNA (8DUO) or with ssDNA (8DUE), closed ring with ssDNA (8DTP)
T1 construct: gene 41; full-length, intein fusion self-cleaved, E. coli BL21(DE3); homohexamer, without or with ssDNA
T1 sequence (P04530 1-475): B1 chain

[2] = target: T2, T4 primosome (gp41 helicase-gp61 primase) (Tequatrovirus T4, UniProt P04530); test: cryo-EM structure; assay type: binding; details: WT primosome with ssDNA, closed-ring gp41; 5 mM ATPγS, 10 mM MgCl2, pH 7.8; sites on gp41
T2 construct: gene 41; full-length proteins, intein fusions self-cleaved, E. coli BL21(DE3); 6:1 helicase:primase on ssDNA; with DNA primase
T2 sequence (P04530 1-475): B1 chain
T2 sequence (P04520 1-342 partner): B4 chain

[3] = target: the molecule itself; test: cryo-EM structure; step 1: 6 uM gp41 helicase with 5 mM ATPγS, no DNA; 20 mM HEPES pH 7.8, 100 mM NaCl, 10 mM MgCl2, 2 mM DTT; 30 min at room temperature
[4] = target: the molecule itself; test: cryo-EM structure; primosome assembled from gp41 E227Q helicase, WT gp61 primase and the ssDNA/RNA primer substrate; helicase and primase regions refined separately
[5] = target: T3, gp41 helicase;gp61 primase (Escherichia phage T4 (T4 …, UniProt P04530;P04520 1-475;1-342, |)); test: cryo-EM; ATPgS; WT primosome pose 1; ssDNA seen, no RNA primer density; Cryo-EM with ATPgS (stated for gp41 and WT primosome); assembly buffer and temperature not in the material; cryo-EM proteins purified in HEPES pH 7.8 buffers; details: protein: recombinant;recombinant; tags: none (intein tag self-cleaved);none (intein tag self-cleaved); chain copies: 6;1; 70-nt DNA (strand 1) annealed to 5-nt RNA (strand 2) at internal TCGGC; single-stranded DNA on both sides
T3 sequence 1: B1 chain
T3 sequence 2: B4 chain

[6] = target: T4, gp41(E227Q) helicase;gp61 primase (Escherichia phage T4 (T4 …, UniProt P04530;P04520 1-475;1-342, E227Q|)); test: cryo-EM; mutant primosome, post primer synthesis; composite map, RNA/DNA hybrid seen; Cryo-EM with ATPgS (stated for gp41 and WT primosome); assembly buffer and temperature not in the material; cryo-EM proteins purified in HEPES pH 7.8 buffers; details: protein: recombinant;recombinant; tags: none (intein tag self-cleaved);none (intein tag self-cleaved); chain copies: 6;1; 70-nt DNA (strand 1) annealed to 5-nt RNA (strand 2) at internal TCGGC; single-stranded DNA on both sides
T4 sequence 1: B1 chain with E227Q
T4 sequence 2: B4 chain

gp41 helicase [7] = target: T5, gp41 helicase (Escherichia phage T4 (T4 bacteriophage), UniProt P04530 1-475); test: cryo-EM; ATPgS; open spiral, 10 nt ssDNA held; RNA primer not resolved; Cryo-EM with ATPgS (stated for gp41 and WT primosome); assembly buffer and temperature not in the material; cryo-EM proteins purified in HEPES pH 7.8 buffers; details: protein: recombinant; tags: none (intein tag self-cleaved); chain copies: 6; 70-nt DNA (strand 1) annealed to 5-nt RNA (strand 2) at internal TCGGC; single-stranded DNA on both sides
T5 sequence: B1 chain

[8] = target: B1; test: cryo-EM structure; step 3: 6 uM gp41 helicase, 5 mM ATPγS, 12 uM ssDNA/RNA primer substrate and 3 uM gp61 primase; 20 mM HEPES pH 7.8, 100 mM NaCl, 10 mM MgCl2, 2 mM DTT; 30 min at room temperature; details: both partners purified
[9] = target: B2; test: cryo-EM structure; primosome assembled from gp41 E227Q helicase, WT gp61 primase and the ssDNA/RNA primer substrate; helicase and primase regions refined separately; details: both partners purified

In the case of `Nc1ncnc2c1ncn2[C@@H]1O[C@H](COP(=O)(O)OP(=O)(O)OP(O)(O)=S)[C@@H](O)[C@H]1O` [ATPγS], the cryo-EM structure (gp41 helicase [1]) is reported as “five nucleotide binding pockets at the subunit interfaces occupied with ATPγS molecules” and the cryo-EM structure [2] is reported as “observed in the T4 primosome in the presence of ssDNA and ATPγS”.

For B1, the “stoichiometry N” value [3] was 6 subunits.

B2: binds [4].

B3: binds [5]; binds [6]; binds (gp41 helicase [7]).

In the case of B4, the “stoichiometry N” value [8] is reported as 1 gp61 primase per gp41 helicase hexamer and the binding result [9] is reported as “binds”.
